Assay [1] addresses lrp8_human LRP8 (UniProt Q14114).
The target of assay [2] is vldlr_human VLDLR (UniProt P98155).

Sequence of lrp8_human LRP8 (Q14114 whole entry): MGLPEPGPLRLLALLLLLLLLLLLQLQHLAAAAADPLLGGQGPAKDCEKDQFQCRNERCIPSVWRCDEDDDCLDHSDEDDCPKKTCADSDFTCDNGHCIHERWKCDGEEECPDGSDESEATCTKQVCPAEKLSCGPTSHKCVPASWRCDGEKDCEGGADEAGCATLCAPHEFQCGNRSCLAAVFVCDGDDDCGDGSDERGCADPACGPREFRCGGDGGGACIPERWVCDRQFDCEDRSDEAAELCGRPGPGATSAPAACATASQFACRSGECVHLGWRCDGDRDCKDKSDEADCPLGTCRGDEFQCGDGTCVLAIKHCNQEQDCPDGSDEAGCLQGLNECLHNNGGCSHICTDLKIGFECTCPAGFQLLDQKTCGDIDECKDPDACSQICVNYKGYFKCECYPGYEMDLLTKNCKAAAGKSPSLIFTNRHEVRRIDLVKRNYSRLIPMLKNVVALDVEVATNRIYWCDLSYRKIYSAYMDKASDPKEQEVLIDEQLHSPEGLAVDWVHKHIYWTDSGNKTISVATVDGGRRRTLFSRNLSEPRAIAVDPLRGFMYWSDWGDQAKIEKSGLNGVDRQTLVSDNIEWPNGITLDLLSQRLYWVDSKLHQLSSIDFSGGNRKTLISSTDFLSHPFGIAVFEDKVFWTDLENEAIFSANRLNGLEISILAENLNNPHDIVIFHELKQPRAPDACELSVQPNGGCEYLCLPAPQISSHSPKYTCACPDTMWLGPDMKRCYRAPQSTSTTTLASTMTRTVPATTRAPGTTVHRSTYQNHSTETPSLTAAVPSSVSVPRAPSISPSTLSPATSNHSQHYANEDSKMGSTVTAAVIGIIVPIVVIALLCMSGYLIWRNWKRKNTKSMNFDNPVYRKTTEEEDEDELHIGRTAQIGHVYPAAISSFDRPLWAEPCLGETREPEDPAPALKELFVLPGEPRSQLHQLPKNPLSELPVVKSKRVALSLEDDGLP

For Reelin (Mus musculus), Q60841 K2360A, in assay [1], the “effect of a mutation on the interaction” value is “disrupting interaction strength”.
For “Reelin (Mus musculus), Q60841 K2360A;K2467A”, the “effect of a mutation on the interaction” value in assay [1] was “disrupting interaction strength”.
In the case of Reelin (Mus musculus), Q60841 K2467A, the “effect of a mutation on the interaction” value in assay [1] and in assay [2] was “disrupting interaction strength” each time.

These data come from IntAct's records for PubMed 17548821.
